The record followed here is patent US20170107273A1 (JAPAN AS REPRESENTED BY DIRECTOR GENERAL OF NATIONAL …, published 2017).

* marks the point of attachment. Biotin = O=C1N[C@H]2[C@H](CS[C@H]2CCCCC(=O)*)N1

Assay [1] deals with E2 protein on J6/JFH-1 HCVcc-8W (J6/JFH-1 HCVcc after 8 rounds of subculture infection in the presence of the …). Kind of assay: cell-based or functional assay.
In assay [2] the target is T1, denatured TH E2-Fc protein (Hepatitis C virus TH strain (genotype …)).
T1 construct: also called denatured E2 protein; not shown: Fc domain of human immunoglobulin (human IgG) from vector CDM-mIL7R-Ig
T1 chain: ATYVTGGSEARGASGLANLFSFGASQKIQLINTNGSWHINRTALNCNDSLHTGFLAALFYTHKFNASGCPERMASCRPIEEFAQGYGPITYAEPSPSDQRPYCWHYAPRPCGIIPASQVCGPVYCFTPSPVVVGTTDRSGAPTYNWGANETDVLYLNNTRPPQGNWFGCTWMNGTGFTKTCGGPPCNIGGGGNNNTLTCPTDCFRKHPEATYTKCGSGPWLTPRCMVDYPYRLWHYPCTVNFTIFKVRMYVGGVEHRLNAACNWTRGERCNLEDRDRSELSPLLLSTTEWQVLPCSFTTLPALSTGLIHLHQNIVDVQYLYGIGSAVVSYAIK
Kind of assay: ELISA, biotinylated antibody on immobilized denatured TH E2-Fc, avidin-HRP. For orientation: In an ELISA, binding on a coated surface is turned into a signal by an enzyme label.

In assay [3] the target is E2 protein of the H77 strain (genotype 1a) on H77/JFH-1 HCVcc (Hepatitis C virus H77 strain (genotype …, UniProt P27958 384-746)). Kind of assay: cell-based or functional assay.
Assay [4] deals with E2 protein of the S310 strain (genotype 3a) on S310/JFH-1 HCVcc (Hepatitis C virus S310 strain (genotype …)). Kind of assay: cell-based or functional assay.
Assay [5] has as its target T2, E2 protein of the TH strain (genotype 1b) on TH/JFH-1 HCVcc (Hepatitis C virus TH strain (genotype …)).
T2 chain: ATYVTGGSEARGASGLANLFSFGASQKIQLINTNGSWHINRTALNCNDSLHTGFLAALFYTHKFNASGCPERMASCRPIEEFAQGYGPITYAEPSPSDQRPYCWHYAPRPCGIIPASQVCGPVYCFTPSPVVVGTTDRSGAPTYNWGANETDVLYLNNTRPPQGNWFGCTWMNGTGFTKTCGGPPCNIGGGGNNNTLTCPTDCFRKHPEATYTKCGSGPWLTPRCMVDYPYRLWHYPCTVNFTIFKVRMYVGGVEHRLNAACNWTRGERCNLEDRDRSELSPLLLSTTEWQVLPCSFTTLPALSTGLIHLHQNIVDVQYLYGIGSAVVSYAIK
Kind of assay: cell-based or functional assay.

In assay [6] the target is T3, QLINTNGSWHIN (SEQ ID NO: 37), TH E2 protein-derived peptide (Hepatitis C virus TH strain (genotype …, SMILES …)).
T3 construct: also called linear peptide of 12 amino acid residues
T3 peptide: Biotin-QLINTNGSWHING-NH2
Kind of assay: ELISA on biotinylated 12-mer peptides on streptavidin plates.

E2 protein of the H77 strain (genotype 1a) on H77/JFH-1 HCVcc (Hepatitis C virus H77 strain, sequence (P27958 384-746 limits assumed): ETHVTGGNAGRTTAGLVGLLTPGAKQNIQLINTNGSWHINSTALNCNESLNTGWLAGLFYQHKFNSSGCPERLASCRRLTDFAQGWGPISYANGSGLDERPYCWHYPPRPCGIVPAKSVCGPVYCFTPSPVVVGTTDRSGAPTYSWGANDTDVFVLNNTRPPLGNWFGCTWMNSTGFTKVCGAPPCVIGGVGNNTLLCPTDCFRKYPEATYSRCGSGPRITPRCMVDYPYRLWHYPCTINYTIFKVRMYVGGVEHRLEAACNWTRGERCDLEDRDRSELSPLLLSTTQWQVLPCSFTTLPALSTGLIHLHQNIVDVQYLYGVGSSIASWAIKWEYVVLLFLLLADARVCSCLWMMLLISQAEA

B1: e2d073 IgG (antibody, V domains shown)
VH: QVQLVQSGAEVKKPGSSVKVSCKASGASFNSFAIDWVRQAPGQGLEWMGRIIPIADVSDYAQKFQGRVTITADKSTRTAYMELTTLRSDDTAVYYCATSPMLTFGGPNAFGAFDVWGQGTMVTVSS
VL: not shown
notes: Human IgG1 made in CHO-K1 cells
For the molecule B1, the “IC50 (µg/mL), 50% infection inhibiting concentration (infectious titer, focus count on Huh-7 cells)” value in assay [1] came to 59.4 µg/mL. In addition, the results for the binding result in assay [2] and in assay [6] were “no binding” and “no binding (tested: 1 µg/mL)”, respectively. Further, the “IC50 (µg/mL) of infection inhibiting activity against HCVcc (HCV core protein in Huh-7 cells)” value is over 30 µg/mL in assay [3], 10.4 µg/mL in assay [4] and 0.25 µg/mL in assay [5].

B2: e2d066 IgG (antibody, V domains shown)
VH: QVQLVQSGSDVKKPGSSVRVSCKASGGSFNSYAVNWVRQAPGQGLEWMGRIMPLVGLPEYAERFQERVTFTADKSTRTAYMDLTSLSSDDTAFYFCAVGVMKIFGEVPLNLDFWGQGTLVTVSS
VL: QAVLTQPSSVSGSPGQSITISCTGTSNDVGSYRYVSWFQQHPGKAPKLMIYDVNKRPSGVSSRFSGSKSGNTASLTISGLQAEDEANYYCSSYTRSSSLAFGGGTKLTVLS
notes: Human IgG1 made in CHO-K1 cells; also called biotinylated e2d066 IgG; ed2066 IgG
With B2, in assay [1], the “IC50 (µg/mL), 50% infection inhibiting concentration (infectious titer, focus count on Huh-7 cells)” value is under 0.01 µg/mL. For the same molecule, the “IC50 (µg/mL) of infection inhibiting activity against HCVcc (HCV core protein in Huh-7 cells)” value in assay [3] amounted to 3.3 µg/mL; in assay [4], 1.03 µg/mL; in assay [5], 0.11 µg/mL. In assay [6], the binding result was “no binding (tested: 1 µg/mL)”.

B3: e2d081 IgG (antibody, V domains shown)
VH: QVQLVQSGSDVKKPGSSVRVSCKASGGSFNSYAVNWVRQAPGQGLEWMGRIMPLVGLPEYAERFQERVTFTADKSTRTAYMDLTSLSSDDTAFYFCAVGVMKIFGEVPLNLDFWGQGTLVTVSS
VL: QSVLTQPPSVSAAPGQKVTISCSGTSSNIGDNYVSWYQHLPGSAPKLLIYDNNKRPSGIPDRFSGSKSGTSATLGITGLQTGDEADFYCGTWDSSLSSVVFGGGTKLTVLG
notes: Human IgG1 made in CHO-K1 cells; also called eE2d081 IgG
For the molecule B3, the “IC50 (µg/mL), 50% infection inhibiting concentration (infectious titer, focus count on Huh-7 cells)” value in assay [1] amounted to 0.67 µg/mL. The “IC50 (µg/mL) of infection inhibiting activity against HCVcc (HCV core protein in Huh-7 cells)” value in assay [3] came out at 0.66 µg/mL; in assay [4] it was 0.5 µg/mL; in assay [5] it was 0.05 µg/mL. Further, in assay [6], the binding result was “no binding (tested: 1 µg/mL)”.
